The record followed here is patent publication US20070117966A1.

The experiment addresses purified αvβ3 integrin (human) (UniProt P06756). The experiment can be described thus: competition ELISA on αvβ3 coated wells; competitor: biotinylated FNfn10-3JCLI4 at 800 pM; no inhibition at the highest concentration. (An ELISA detects its analyte on a solid surface through an enzyme-linked reagent.)

The IC50 is the midpoint of a concentration-inhibition curve. High values mean a need for much substance, low ones inhibition by little substance.

For “wild-type FNfn10 (FNfn10-WT), purified protein (from UniProt P02751 1538-1631)”, the IC50 was above 80 nM.
